Results published in patent publication US20180186871A1 (SINGAPORE HEALTH SERVICES PTE, published 2018).

T1: human IL-11 (human, UniProt P20809 22-199)
T1 sequence (looked up): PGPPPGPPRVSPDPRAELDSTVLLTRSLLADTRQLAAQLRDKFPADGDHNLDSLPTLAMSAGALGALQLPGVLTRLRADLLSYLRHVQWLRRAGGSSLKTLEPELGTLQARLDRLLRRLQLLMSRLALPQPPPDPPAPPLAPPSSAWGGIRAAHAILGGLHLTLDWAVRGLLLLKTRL


Molecular target: T1, human IL-11
Assay: cell-based or functional assay
Also: test concentration or dose not given here.

MMP2 production (ng/ml), TGFB1-stimulated human atrial fibroblasts, Experiment 1 (NEG 42.7, POS 70.2) | MMP2 production (ng/ml), TGFB1-stimulated human atrial fibroblasts, Experiment 2 (NEG 36.2, POS 62.3) | Binder
48.2 ng/mL | 59.7 ng/mL | YU100-E08 (scFv) scFv: QVQLVQSGGGVVQPGRSLRLSCAASGFTFSSYAMHWVRQAPGKGLEWVAVISYDGSNKYYADSVKGRFTISRDNSKNTLYLQMNSLRAEDTAVYYCARIMGYDYGDYDVVDYWGQGTLVTVSSGSASAPKLEEGEFSEARVQSALTQPRSVSGSPGQSVTISCTGTSSDVGGYNYVSWYQQHPGKAPKLMIYDVSRRPSGVPDRFSGSKSGNTASLTISGLQAEDEADYYCCSYAGNYTWMFGGGTKLTVL
51.7 ng/mL | 44.4 ng/mL | YU100-E09 (scFv) scFv: QVQLVESGGGVVQPGRSLRLSCAASGFTFSSYAMHWVRQAPGKGLEWVAVISYDGSNKYYADSVKGRFTISRDNSKNTLYLQMNSLRAEDTAVYYCARIMGYDYGDYDVVDYWGQGTLVTVSSGSASAPKLEEGEFSEARVQSALTQPRSVSGSPGQSVTISCTGTSSDVGDYDYVSWYQQHPGKAPKLIIYDVTKRPSGIPDRFSGSKSGNTASLTISGLQAEDEADYYCCSYAGSYTWVFGRGTKLTVL
52.9 ng/mL | 39.6 ng/mL | YU100-H09 (scFv, not shown: a dimerising Fc or GST) scFv: QVQLVQSGGGVVQPGRSLRLSCAASGFTFSSYAMHWVRQAPGKGLEWVAVISYDGSNKYYADSVKGRFTISRDNSKNTLYLQMNSLRAEDTAVYYCARIMGYDYGDYDVVDYWGQGTLVTVSSGSASAPKLEEGEFSEARVQSALTQPASVSGSPGQSITISCTGTSSDVGGYNYVSWYQQHPGKAPKLMIYDVSNRPSGVSNRFSGSKSGNTASLTISGLQAEDEADYYCCSYAGSYTWVFGGGTKLTVL
57.5 ng/mL | 51.3 ng/mL | YU100-H02 (scFv) scFv: QVQLQQSGGGVVQPGRSLRLSCAASGFTFSSYGMHWVRQAPGKGLEWVAVISYDGSNKYYADSVKGRFTISRDNSKNTLYLQMNSLRAEDTAVYYCARIMGYDYGDYDVVDYWGQGTLVTVSSGSASAPKLEEGEFSEARVQSALTQPRSVSRSPGQSVTISCTGTSSDVGTYNYVSWYQQHPGKAPKLMIYDVSKRPSGVPDRFSGSKSGNTASLTISGLQAEDEADYYCCSYAGFYTWVFGGGTKLTVL
58.5 ng/mL | 48.7 ng/mL | YU100-H04 (scFv) scFv: QVQLVESGGGVVQPGRSLRLSCAASGFTFSSYAMHWVRQAPGKGLEWVAVISYDGSNKYYADSVKGRFTISRDNSKNTLYLQMNSLRAEDTAVYYCARIMGYDYGDYDVVDYWGQGTLVTVSSGSASAPKLEEGEFSEARVQSALTQPASVSGSPGQSITISCTGTSSDIGVYNYVSWYQQHPGKAPKLMIYDVSKRPSGVPDRFSGSKSGNTASLTISGLQAEDEADYYCCSYAGSYTWVFGGGTKLTVL
53.1 ng/mL | 46.6 ng/mL | YU100-F07 (scFv) scFv: QVQLVESGGGVVQPGRSLRLSCAASGFTFSSYAMHWVRQAPGKGLEWVAVISYDGSNKYYADSVKGRFTISRDNSKNTLYLQMNSLRAEDTAVYYCARIMGYDYGDYDVVDYWGQGTLVTVSSGSASAPKLEEGEFSEARVQSALTQPRSVSVSPGQSVTISCTGTSSDVGGYEYVSWYQQHPGKAPKLMIYDVTKRPSGVPDRFSGSKSGNTASLTISGLQGEDAADYYCCSYAGSYTWVFGGGTTVTVL
